Test results as given in patent US20240116985A1 (published 2024).
Starred links: 1 amine or outer side, 2 acyl side, 3 side chain; linkers in the order of their positions; H or OH if unused. Positions of bridges follow the written chain, without caps; N, C: chain ends. Non-standard residues stand in square brackets, D forms with d. Primed or numbered codes have the meaning given here. RdN(3) = (R)-4-(((allyloxy)carbonyl)(methyl)amino)-2-amino-2-methylbutanoic acid, stapling residue, C=CCOC(=O)N(C)CC[C@@](C)(N[*:1])C(=O)[*:2]; RdN″ = (R)-4-(((allyloxy)carbonyl)(methyl)amino)-2-amino-2-methylbutanoic acid (stapling residue), C=CCOC(=O)N(C)CC[C@@](C)(N[*:1])C(=O)[*:2]; B5(16) = 2-amino-2-(pent-4-en-1-yl)hept-6-enoic acid = 2,2-bis(4-pentenyl)glycine (stitching residue), C=CCCCC(CCCC=C)(N[*:1])C(=O)[*:2]; B5(4) = 2,2-bis(4-pentenyl)glycine = 2-amino-2-(pent-4-en-1-yl)hept-6-enoic acid (stitching residue), C=CCCCC(CCCC=C)(N[*:1])C(=O)[*:2]; B5(5) = 2,2-bis(4-pentenyl)glycine, 2-amino-2-(pent-4-en-1-yl)hept-6-enoic acid (stitching residue), C=CCCCC(CCCC=C)(N[*:1])C(=O)[*:2]; RdN = (R)-4-(((allyloxy)carbonyl)(methyl)amino)-2-amino-2-methylbutanoic acid, C=CCOC(=O)N(C)CC[C@@](C)(N[*:1])C(=O)[*:2]; B5(19) = 2-amino-2-(pent-4-en-1-yl)hept-6-enoic acid (bis(4-pentenyl)glycine), C=CCCCC(CCCC=C)(N[*:1])C(=O)[*:2]; Qui = (S)-2-amino-3-(quinolin-2-yl)propanoic acid, O=C([C@H](Cc1ccc2ccccc2n1)N[*:1])[*:2]; Trp(7-F) = N[C@@H](Cc1c[nH]c2c(F)cccc12)C(=O)O; S7 = C[C@@](CCCCCC=[*:3])(N[*:1])C(=O)[*:2]; 2Nal = N[C@@H](Cc1ccc2ccccc2c1)C(=O)O; Bta = N[C@@H](Cc1csc2ccccc12)C(=O)O; αAllylPro = C=CC[C@@]1(C(=O)O)CCCN1; S8 = C=CCCCCCC[C@](C)(N)C(=O)O; Aib = CC(C)(N)C(=O)O

T1: full-length beta-Catenin (Uniprot ID P35222) (Homo sapiens (Human), UniProt P35222 2-781)
T1 construct: the AlphaScreen assay uses a Histidine (Nickel Chelate) detection kit, so a His tag is likely there; also called B-Catenin; bCat
T1 sequence: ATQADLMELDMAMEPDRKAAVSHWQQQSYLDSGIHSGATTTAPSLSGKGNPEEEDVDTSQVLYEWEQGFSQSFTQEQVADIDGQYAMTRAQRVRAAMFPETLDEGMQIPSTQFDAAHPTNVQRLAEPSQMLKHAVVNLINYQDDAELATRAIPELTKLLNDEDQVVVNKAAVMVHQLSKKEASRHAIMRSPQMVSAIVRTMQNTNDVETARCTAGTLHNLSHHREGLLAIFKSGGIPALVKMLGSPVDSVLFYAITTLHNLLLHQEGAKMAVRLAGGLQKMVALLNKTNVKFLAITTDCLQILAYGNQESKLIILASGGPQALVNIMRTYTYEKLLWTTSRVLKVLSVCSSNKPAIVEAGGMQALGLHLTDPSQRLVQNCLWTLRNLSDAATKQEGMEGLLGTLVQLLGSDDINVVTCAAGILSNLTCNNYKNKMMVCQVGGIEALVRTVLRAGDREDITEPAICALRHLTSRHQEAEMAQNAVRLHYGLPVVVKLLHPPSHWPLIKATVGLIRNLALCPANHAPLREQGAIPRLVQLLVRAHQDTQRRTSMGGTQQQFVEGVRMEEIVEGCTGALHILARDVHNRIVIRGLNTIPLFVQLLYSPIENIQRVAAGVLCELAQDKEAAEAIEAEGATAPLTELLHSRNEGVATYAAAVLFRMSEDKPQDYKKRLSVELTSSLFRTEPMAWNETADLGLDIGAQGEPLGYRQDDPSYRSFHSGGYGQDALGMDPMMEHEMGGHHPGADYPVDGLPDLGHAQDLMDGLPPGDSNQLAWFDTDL

B1: I-154 (peptide)
peptide: ADIXDEAAFAXFWA
modifications: not fully specified; as printed: Ac-Ala-Asp-Ile-RdN-Asp-Glu-Ala-Ala-Phe-Ala-S7-Phe-Trp-Ala-NH2; N-terminal acetyl, C-terminal amide; RdN(4), S7(11); staple RdN-S7 by olefin metathesis
notes: stapled peptide
B2: I-155 (peptide)
peptide: ADIXDEAAFAXFWA
modifications: not fully specified; as printed: Ac-Ala-Asp-Ile-RdN-Asp-Glu-Ala-Ala-Phe-Ala-S7-Phe-Trp-Ala-NH2; N-terminal acetyl, C-terminal amide; RdN(4), S7(11); staple RdN-S7 by olefin metathesis
notes: stapled peptide
B3: I-173 (peptide)
peptide: XDAXDXAAFVXFWQ
modifications: not fully specified; as printed: Ac-PL3-Asp-Ala-B5-Asp-EtGA-Ala-Ala-Phe-Val-S8-Phe-Trp-Gln-NH2; N-terminal acetyl, C-terminal amide; PL3(1), B5(4), EtGA(6), S8(11); staples PL3-B5 and B5-S8 by olefin metathesis
notes: stapled peptide

molecular target: T1, full-length beta-Catenin (Uniprot ID …); assay: AlphaScreen competition; full-length beta-catenin with biotin-TCF4(10-53) probe as competitor
Procedure: Equal volume of the titrated peptide was added to the plate and incubated for 15 minutes at 20° C. Then 4 uL of donor and 4 uL acceptor beads at 10 ug/mL were added to the plate, for a 16 uL reaction pool and protected from light for 60 minutes at 20° C. prior to read. Reads were performed on a CLARIOstar plate reader (BMG Labtech) in duplicate, and data were fitted to a 1:1 binding model with hill slope using an in-house script. All provided concentrations are final concentrations.

Binder	EC50 [nM]
Ac-[Aib]DI[RdN]DEAAFQ[S7]FW-NH2 (staple 4-11, stapled peptide composition) [I-147]	328
Ac-[αAllylPro]DA[B5(4)]DEAAFV[S8]F[Qui]Q-NH2 (staple 1-4, 4-11, stapled peptide composition) [I-143]	733
Ac-[αAllylPro]DA[B5(19)]DEAAFV[S8]F[2Nal]Q-NH2 (staple 1-4, 4-11, stapled peptide composition) [I-140]	934
Ac-[αAllylPro]DA[B5(4)]DEAAFV[S8]F[Bta]Q-NH2 (staple 1-4, 4-11, stapled peptide composition) [I-144]	66
Ac-[αAllylPro]DI[B5(5)]DDAAFQ[S8]FWH-NH2 (staple 1-4, 4-11, stapled peptide) [I-174]	116
Ac-[αAllylPro]DI[B5(5)]DDAAFQ[S8]FWH-NH2 (staple 1-4, 4-11, stapled peptide) [I-175]	116
B1	828
Ac-ADI[RdN(3)]DEAAFQ[S7]FWA-NH2 (staple 4-11, stapled peptide composition) [I-153]	153
Ac-ADI[RdN″]DEAAFA[S7]FWH-NH2 (staple 4-11, stapled peptide composition) [I-152]	752
Ac-[αAllylPro]DA[B5(16)]DEAAFV[S8]F[Trp(7-F)]Q-NH2 (staple 1-4, 4-11, stapled peptide composition) [I-166]	86.5
B2	734
Ac-[αAllylPro]DA[B5(4)]DEAAFV[S8]FWA-NH2 (staple 1-4, 4-11, stapled (stitched) peptide composition) [I-135]	278
Ac-ADI[RdN″]DEAAFQ[S7]FW-NH2 (staple 4-11, stapled peptide composition) [I-148]	398

molecular target: T1, full-length beta-Catenin (Uniprot ID …); assay: fluorescence polarization competition; full-length beta-catenin with 5FAM-TCF4(10-53) probe as competitor
Procedure: The plate was incubated protected from light for 60 minutes at 20° C. prior to read. Reads were performed on a CLARIOstar plate reader (BMG Labtech) in duplicate, and data were fitted to a 1:1 binding model with hill slope using an in-house script. All provided concentrations are final concentrations.

Binder	EC50 [nM]
B3	3120
Ac-[Aib]DI[RdN]DEAAFQ[S7]FW-NH2 (staple 4-11, stapled peptide composition) [I-147]	1640
Ac-[αAllylPro]DA[B5(4)]DEAAFV[S8]F[Qui]Q-NH2 (staple 1-4, 4-11, stapled peptide composition) [I-143]	2270
Ac-[αAllylPro]DA[B5(19)]DEAAFV[S8]F[2Nal]Q-NH2 (staple 1-4, 4-11, stapled peptide composition) [I-140]	2270
Ac-[αAllylPro]DA[B5(4)]DEAAFV[S8]F[Bta]Q-NH2 (staple 1-4, 4-11, stapled peptide composition) [I-144]	146
Ac-[αAllylPro]DI[B5(5)]DDAAFQ[S8]FWH-NH2 (staple 1-4, 4-11, stapled peptide) [I-174]	1760
Ac-[αAllylPro]DI[B5(5)]DDAAFQ[S8]FWH-NH2 (staple 1-4, 4-11, stapled peptide) [I-175]	1760
B1	5000
Ac-ADI[RdN(3)]DEAAFQ[S7]FWA-NH2 (staple 4-11, stapled peptide composition) [I-153]	2140
Ac-ADI[RdN″]DEAAFA[S7]FWH-NH2 (staple 4-11, stapled peptide composition) [I-152]	5000
Ac-[αAllylPro]DA[B5(16)]DEAAFV[S8]F[Trp(7-F)]Q-NH2 (staple 1-4, 4-11, stapled peptide composition) [I-166]	2160
B2	5000
Ac-[αAllylPro]DA[B5(4)]DEAAFV[S8]FWA-NH2 (staple 1-4, 4-11, stapled (stitched) peptide composition) [I-135]	1870
Ac-ADI[RdN″]DEAAFQ[S7]FW-NH2 (staple 4-11, stapled peptide composition) [I-148]	2770
